Series [1] addresses T1, MBP-ZFP57 DNA binding domain (Glu87-Ala195) (Mus musculus, UniProt Q8C6P8 87-195).
T1 sequence: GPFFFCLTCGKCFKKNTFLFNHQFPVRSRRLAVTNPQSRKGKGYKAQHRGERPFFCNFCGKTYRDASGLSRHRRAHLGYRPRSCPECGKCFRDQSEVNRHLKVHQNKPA
The series can be described thus: EMSA; lower efficiency than control TGCCGC; EMSA: 25 pmol protein, 2.5 pmol dsDNA, 25 mM HEPES pH 7.9, 50 mM KCl, 6.25 mM MgCl2, 5% glycerol, on ice 10 min; 5% PAGE, SYBR Green stain. As to conditions: protein: recombinant; blunt. Background: In EMSA bound probe runs differently from free probe, usually more slowly.

The target of series [2] is T1, MBP-ZFP57 DNA binding domain …. The series can be described thus: EMSA; EMSA: 25 pmol protein, 2.5 pmol dsDNA, 25 mM HEPES pH 7.9, 50 mM KCl, 6.25 mM MgCl2, 5% glycerol, on ice 10 min; 5% PAGE, SYBR Green stain. To be noted: protein: recombinant; blunt.

B1: Methylated Commd1 (dsDNA)
DNA 1: GTAACTGCGGCCGCCCCACA
DNA 2: TGTGGGGCGGCCGCAGTTAC
modifications: 5mC at top 8, 12 and bottom 12, 8 (5'-based)
Turning to B1, in series [1], the binding result is listed as “binds”.

B2: Methylated 1G (dsDNA)
DNA 1: GTAATATGGCCGCAGTAATA
DNA 2: TATTACTGCGGCCATATTAC
modifications: 5mC at top 11 and bottom 9
B2: in series [2], the binding result is recorded as “binds”.

B3: Methylated Ston2 JF1 (dsDNA)
DNA 1: CTGGGGCGGCAGTTGCCGCAGATGG
DNA 2: CCATCTGCGGCAACTGCCGCCCCAG
modifications: 5mC at top 7, 17; methylated bottom strand not in material
Take B3: the binding result in series [2] was “binds”.

B4: Methylated Control (dsDNA)
DNA 1: GTAATATTGCCGCAGTAATA
DNA 2: TATTACTGCGGCAATATTAC
modifications: 5mC at top 11 and bottom 9 (5'-based; printed Z)
On to B4, for which the binding result in series [2] is “binds”.

Source of the values: PMC4756812, “ZFP57 recognizes multiple and closely spaced sequence motif variants to maintain repressive epigenetic marks in mouse embryonic stem cells”.
